# Laboratory results reported in US20240316157A1, “PHARMACEUTICAL COMPOSITION OF PCSK9 INHIBITOR AND GLP-1 RECEPTOR AGONIST” (Gan & Lee Pharmaceuticals Co., Ltd., priority 2021, published 2024).
# B1: Evolocumab (antibody, chains of the INN, looked up, V domains shown)
# VH: EVQLVQSGAEVKKPGASVKVSCKASGYTLTSYGISWVRQAPGQGLEWMGWVSFYNGNTNYAQKLQGRGTMTTDPSTSTAYMELRSLRSDDTAVYYCARGYGMDVWGQGTTVTVSS
# VL: ESALTQPASVSGSPGQSITISCTGTSSDVGGYNSVSWYQQHPGKAPKLMIYEVSNRPSGVSNRFSGSKSGNTASLTISGLQAEDEADYYCNSYTSTSMVFGGGTKLTVL
# notes: PCSK9 antibody; source is Repatha®, commercially available from Amgen
# B2: Laboratory-Purified Evolocumab: Commercially available Evolocumab (Repatha®) purified in the laboratory, 140 mg/ml (antibody, chains of the INN, looked up, V domains shown)
# VH: B1 VH
# VL: B1 VL
# How the values were obtained:
# wild-type hamsters [1] = assay: Effect of the combination of Alirocumab and semaglutide on blood glucose in hamsters; format: in vivo, hamster; settings: for Blood glucose (relative concentration): 7th day after dosing relative to baseline, s.c. once every two days, high-fat high-sugar feed, x±s; for Blood glucose decline rate E value: 7th day, versus control group, recorded as 0 if not significantly different from control
# Procedure: The experimental animals in this Example were wild-type hamsters, and the hamsters were grouped and administered according to the following standard: • 1) Control group: injection of excipient samples, subcutaneous injection (administration of […]), once every two days; • 2) Alirocumab group: injection of Alirocumab sample (Alirocumab 10 mg/kg), subcutaneous injection, once every two days; • 3) Semaglutide group: injection of semaglutide sample (semaglutide 0.12 mg/kg), subcutaneous injection, once every two days; • 4) Alirocumab+semaglutide group: injection of Alirocumab (Alirocumab 10 mg/kg) and semaglutide (semaglutide 0.12 mg/kg) by subcutaneous injection, the frequency of administration was once every two days.
# On the first day of the experiment, each group of wild-type hamsters was given high-fat and high-sugar feed (containing 10% lard, 10% cholesterol, and 60% fructose) and injected with drugs according to the above dosing regimen for each group, and blood was collected from the inner canthus vein of the hamster on the day before administrating and 7th day after dosing, plasma was anticoagulated with sodium heparin, and plasma was obtained by centrifugation of the whole blood at 4° C. for 10 min at 4000 rpm, and the blood glucose level was detected by glucose assay kit (Biosino Bio-Technology and Science Incorporation).
# The obtained blood glucose data were normalized according to the following method: taking the blood glucose of each group before the administration of the drug as the baseline, the relative concentration of the corresponding time point obtained by comparing the blood glucose at the monitoring point after the administration of the drug to the baseline glucose, the relative concentration of blood glucose was expressed as x±s, and the decline rate of the blood glucose of each administration group was calculated by using the analysis of variance using the GraphPad Prism software, in which x means the average value of data, and s denotes the standard deviation.
# Decline rate of blood glucose: E=[(relative blood glucose of […])/relative blood glucose of control group]×100%
# Note: If there is no significant difference between the relative blood glucose value of the administered group and the relative blood glucose of the control group, the value of E is recorded as 0.
# Calculation method of synergistic effect: the determination was made by using Zhengjun Jin's Q value, in which the Q value was obtained by the following formula: Q=Ea+b/(Ea+Eb−Ea×Eb); wherein Ea+b indicated the decline rate of detection indexes of the combination and mixed administration of the two drugs, and Ea, Eb indicated the decline rate of detection indexes of the two drugs used alone. If Q is between 0.85 and 1.15, it means that the two drugs have an additive effect; Q>1.15, the two drugs have a synergistic effect; Q<0.85, the two drugs have an antagonistic effect.
# wild-type hamsters [2] = assay: Effect of the combination of Evolocumab and Compound 5 on blood glucose in hamsters; format: in vivo, hamster
# Procedure: The experimental animals in this Example were wild-type hamsters, and the hamsters were grouped and administered according to the following standard: • 1) Control group: subcutaneous injection of excipient samples, subcutaneous injection (administration of 2 μL/kg), once every two days; • 2) Evolocumab group: injection of Evolocumab samples (Evolocumab 30 mg/kg) by subcutaneous injection, once every two days; • 3) Compound 5 group: injection of compound 5 sample (compound 5: 0.12 mg/kg), using subcutaneous injection, once every two days; • 4) Evolocumab+Compound 5 group: injection of a pharmaceutical combinations containing Evolocumab and Compound 5 (Evolocumab 30 mg/kg, Compound 5: 0.12 mg/kg) by subcutaneous injection once every two days.
# On the first day of the experiment, each group of wild-type hamsters was given high-fat and high-sugar feed (containing 10% lard, 10% cholesterol, and 60% fructose) and injected with samples according to the dosing regimen described above for each group, and blood was collected from the inner canthus vein of the hamsters on the day before administration and 7th day after administration, and plasma was anticoagulated with heparin sodium, and plasma was obtained by centrifugation for 10 min at 4° C. at 4,000 rpm, and the blood glucose level was measured by glucose assay kit (Biosino Bio-Technology and Science Incorporation.) […]
# [3] = tested on: transgenic mice overexpressing human PCSK9; assay: Effect of Evolocumab in combination with Compound 5 on blood lipid (LDL-C) in hyperlipidemic mice; format: in vivo, mouse; settings: conclusion in words from Table 3
# Procedure: In this example, experimental animals were transgenic mice overexpressing human PCSK9 (4 weeks old). After being fed a high-fat diet for 37 days, their fasting lipid levels were measured.
# On the 5th day after dosing, the lipid levels of the mice were measured. The lipid measurement method was as follows: Blood was collected from the mice via the inner canthus vein, plasma was obtained by centrifuging whole blood at 4° C. and 4000 rpm for 10 minutes with sodium heparin as an anticoagulant. LDL-C levels were measured using an LDL-C assay kit (Nanjing Jiancheng Bioengineering Institute).
# The blood lipid data obtained were normalized using the following method: The blood lipid of each group before administration was taken as baseline, and the relative concentration of lipid at the corresponding time point obtained by comparing the blood lipid at the monitoring points after administration with that before administration. The relative concentration of blood lipid is represented as ‘x±s’, with ‘x’ representing the mean value of the data and ‘s’ representing the standard deviation. Variance analysis was conducted using GraphPad Prism software.
# [4] = tested on: humanized mice overexpressing PCSK9 (B6-hPCSK9); assay: Animal efficacy of Evolocumab in combination with Compound 5: body weight, fasting blood glucose, LDL-C; format: in vivo, mouse
# From the text: In this example, humanized mice overexpressing PCSK9 (B6-hPCSK9) (males, 6 weeks old) were used, totaling 30 mice. These humanized mice were divided into six groups: K0-K5, with 5 mice per group. K0 served as the NC control group (fed a high-fat feed throughout the experiment), while K1-K5 were experimental groups. After a 1-week adaptation period with growth and breeding feed (Keao Xieli Feed), they were fed a high-fat diet for one month (Xietong Pharmaceutical Bio-engineering), and dosing was initiated after the high-fat diet feeding.
# The dosing for each experimental group was done via subcutaneous injection once in total, with the dose administrated calculated based on the dose of Evolocumab. […] If the dose was doubled (2×), the dose was doubled accordingly.
# Throughout the experiment, various indicators were monitored with the following frequencies: for weight monitoring, the weight was measured and recorded before dosing and then every other day after blood collection, this was performed a total of 3 times. […] Blood glucose levels were measured using a glucose assay kit (provided by Biosino Bio-Technology and Science Inc). […] LDL-C in the serum samples was measured using an LDL-C test kit (Nanjing Jiacheng Bioengineering Institute).
# [5] = CEX-HPLC acid-to-base peak ratio of Evolocumab (storage stability); format: physicochemical; settings: 4° C., reference of one-month study of Suspension Formulation-2
# [6] = Reduced CE-SDS light and heavy chain ratio of Evolocumab (storage stability); format: physicochemical; settings: 4° C., reference of one-month study of Suspension Formulation-2
# From the text: The Acidic and Alkaline Peak ratio of Evolocumab monoclonal antibody in Suspension Formulation-2 falls within the quality standard range of originator product. (main peak≥51%, alkaline peak≤16%). • (4) The results of reduced CE-SDS testing for the light-heavy chain ratio of Evolocumab monoclonal antibody in Suspension Formulation-2 are presented in Table 22: […]
molecule,measurement,setting,value
Alirocumab,Blood glucose (relative concentration),wild-type hamsters [1],0.71 ± 0.049
same,Blood glucose decline rate E value,wild-type hamsters [1],0%
same,hypoglycemic function,wild-type hamsters [1]; conclusion in words from Table 1,did not show a hypoglycemic function
Semaglutide,Blood glucose (relative concentration),wild-type hamsters [1],0.61 ± 0.062
same,Blood glucose decline rate E value,wild-type hamsters [1],14.1%
B1,Blood glucose decline rate E value,"wild-type hamsters [2]; 7th day, versus control group, recorded as 0 if not significantly different from control",0%
same,hypoglycemic function,wild-type hamsters [2]; conclusion in words from Table 2,did not show a hypoglycemic function
same,lipid-lowering effect,[3],lipid-lowering effects
same,body weight,"[4]; single s.c. 1× dose (K2 530 ug/kg Compound 5; K3, K4 12.3 mg/kg Evolocumab), FIGS. 1-2",did not experience weight loss
same,LDL-C,"[4]; single s.c. 1× dose (K3, K4 12.3 mg/kg Evolocumab), FIG. 5",ability to lower LDL-C levels was consistent
B2,Alkaline Peak (%),[5],10.569%
same,Pre-LC + LC + HC(%),[6],98.79%
